± gives the standard deviation.

The series is described as follows: protein stability index of a GFP-peptide fusion (GPS, HEK-293T) (PSI 1-6); higher = more stable.
Where [1] appears, read: treatment: DMSO, c terminus: a fixed tail appended.
The mark [2] stands for this setting: treatment: MLN4924 1 uM, 8 h, c terminus: a fixed tail appended.
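Further: 24-mer peptide tiles fused after GFP, lentivirally expressed, FACS-sorted into six equal bins by GFP/DsRed ratio, decoded by Illumina sequencing, PSI is the read-weighted mean bin number.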

As for PHGTLRVCTISSTGPLQPQPKKPE [PKD2L1], the protein stability index under setting [1] is 4.42 ± 0.27 and the protein stability index under setting [2] is 4.5 ± 0.3.

Take PHPDLPAEEKEQLLHNDEYQETMV [USP39]: the protein stability index came to 5.35 ± 0.24 under setting [1] and 5.55 ± 0.21 under setting [2].

For PIKLELLEPKANLQAALQVLELHH [VPS39], the protein stability index runs as follows: under setting [1], 2.36 ± 0.41; under setting [2], 2.41 ± 0.22.

PILKRLERPQDRDTPVQNKRRRSV [CDC25B]: the protein stability index under setting [1] was determined as 5.03 ± 0.49 and the protein stability index under setting [2] came out at 5.11 ± 0.16.

As for PKEQLSTSFQWVTKWVDYSNKYGF [PLK2], the protein stability index reads like this: under setting [1], 2.29 ± 0.45; under setting [2], 2.46 ± 0.48.

For the sequence PKKLLNPVKASRSHQELHRELLMN [FAM107A], the protein stability index came to 3.17 ± 0.21 under setting [1] and 3.19 ± 0.29 under setting [2].

In turn, PLDDALLSFAHANCTLIISYQKPK [DPCD] gave a protein stability index under setting [1] of 2.17 ± 0.2 and a protein stability index under setting [2] of 2.22 ± 0.21.

With PLLKLACTNTYVTGLSMIANGGAI [OR4A15], the protein stability index came out at 2.15 ± 0.58 under setting [1] and 2.21 ± 0.72 under setting [2].

For the sequence PLPESLASLHPSVSPGSPPPPLPN [PLAGL1], the protein stability index came to 5.01 ± 0.27 under setting [1] and 4.95 ± 0.16 under setting [2].

As to PLSDDHDEKYGVPSLEELGFDTDG [CRY1], the protein stability index under setting [1] was 5.58 ± 0.18 and the protein stability index under setting [2] was determined as 5.62 ± 0.18.

PLSKSSPATTVTSPNSTPAKTIDT [SNAP91] displayed a protein stability index under setting [1] of 5.18 ± 0.19 and a protein stability index under setting [2] of 5.18 ± 0.12.

Consider PLSSDIQVITQTGVPGQPLNFKAE [PTPRD], for which the protein stability index by setting is: under setting [1], 4.66 ± 0.17; under setting [2], 4.51 ± 0.26.

As to PLVYKAIQQGINAVNQEAMNNAQR [ACSBG2], the protein stability index reads like this: under setting [1], 3.331 ± 0.031; under setting [2], 3.45 ± 0.23.

For the sequence PNPGFSMLDFLSERPWIKRMIFKL [APMAP], the protein stability index is 2.05 ± 0.2 under setting [1] and 2.36 ± 0.66 under setting [2].

Regarding PPEQGKIFIARRSLLDELLEVDHI [SOAT1], the protein stability index stood at 2.76 ± 0.2 under setting [1] and 2.93 ± 0.32 under setting [2].

With PPPLDQYVKFDAVSGDYYPIIYFN [CLPTM1], the protein stability index is, setting by setting: under setting [1], 2.32 ± 0.14; under setting [2], 2.37 ± 0.44.

In turn, PPRGAVERHSDLPPLNPTSWWADL [SPNS1] gave a protein stability index under setting [1] of 3.28 ± 0.29 and a protein stability index under setting [2] of 3.34 ± 0.29.

Consider PPRKSGSFHSSGEKQKQPRWREGT [PBXIP1], for which the protein stability index is, setting by setting: under setting [1], 4.4 ± 0.068; under setting [2], 4.38 ± 0.3.

For the sequence PSAILRTPESTKPGPVCQPPVSQS [ANKRD40], the protein stability index runs as follows: under setting [1], 4.59 ± 0.23; under setting [2], 4.45 ± 0.18.

In the case of PSLGRVLPDPREACGSSSYVASIV [RBMY1A1], the protein stability index was 2.63 ± 0.36 under setting [1] and 2.94 ± 0.21 under setting [2].

With PSLPSCLCSFLLLLLLQVSSSYAG [MOG], the protein stability index worked out at 2.44 ± 0.048 under setting [1] and 2.77 ± 0.34 under setting [2].

As to PSNKAPLLVLCEDHRGRMVKHQCC [EHMT1], the protein stability index came to 3.13 ± 0.27 under setting [1] and 3.37 ± 0.34 under setting [2].

Take PSPAPAVAAAAAATTAATAAATTT [SNAP91]: the protein stability index stood at 5.33 ± 0.31 under setting [1] and 5.39 ± 0.17 under setting [2].

With PSVIQEIHQESGKAPSTDDATWAA [C10orf62], the protein stability index runs as follows: under setting [1], 4.29 ± 0.33; under setting [2], 4.66 ± 0.34.

Turning to PSYKVKVTGLNPKTKYILLMDIVP [TBX5], the protein stability index is 2.73 ± 0.28 under setting [1] and 2.83 ± 0.49 under setting [2].

Regarding PTELWPQEAVPLGLGLEDADWTQG [TEX19], the protein stability index reads like this: under setting [1], 4.56 ± 0.22; under setting [2], 4.59 ± 0.22.

Turning to PTGEGSISHEEQKSVRLARELESR [CHCHD6], the protein stability index by setting is: under setting [1], 5.33 ± 0.17; under setting [2], 5.35 ± 0.33.

Take PTGLLALQQIADFMTTNVPNVYPA [ADD1]: the protein stability index was determined as 2.1 ± 0.47 under setting [1] and 2.14 ± 0.25 under setting [2].

Take PTVPSAATSQPTPSQHSAHTSSQP [CCDC6]: the protein stability index was determined as 5.21 ± 0.13 under setting [1] and 5.22 ± 0.27 under setting [2].

With PVGFGRRTDPNGDYIRRYLPVLRG [CRY1], the protein stability index came to 3.14 ± 0.2 under setting [1] and 3.17 ± 0.39 under setting [2].

Turning to PVRAAASSPVTTLTQTMHDLAGLG [CDC25B], the protein stability index by setting is: under setting [1], 4.03 ± 0.24; under setting [2], 3.93 ± 0.19.

Regarding PYIPPHAALCLEVTLKTAVDGPDL [FKBP8], the protein stability index is, setting by setting: under setting [1], 2.32 ± 0.41; under setting [2], 2.23 ± 0.2.

With PYLRFGCLSCRLFYFKLTDLYKKV [CRY1], the protein stability index stood at 2.55 ± 0.45 under setting [1] and 2.32 ± 0.38 under setting [2].

As to PYTEKPRLWHTACASDEGEVIVFG [KLHDC2], the protein stability index runs as follows: under setting [1], 2.51 ± 0.21; under setting [2], 2.86 ± 0.23.

QAIDHGCEHICVNSDDSYTCECLE [MATN2]: the protein stability index reads like this: under setting [1], 5.43 ± 0.098; under setting [2], 5.14 ± 0.28.

Sequence QAKTHTDSSEKELEPEAAEEALEN [ACBD3] registered a protein stability index under setting [1] of 5.52 ± 0.2 and a protein stability index under setting [2] of 5.65 ± 0.24.

As to QALGIPATECEFVGSLPVIVVGRL [LPCAT4], the protein stability index reads like this: under setting [1], 2.38 ± 0.58; under setting [2], 2.29 ± 0.66.

QALLDVKNIAHQNKFGEDMPHPH [HDAC6] returned a protein stability index (treatment: DMSO, c terminus: native) of 4.99 ± 0.18 and a protein stability index (treatment: MLN4924 1 uM, 8 h, c terminus: native) of 5.08 ± 0.12.

Take QAPIAAVLLMHMPAEQAFWCLVQI [TBC1D10A]: the protein stability index is 3.25 ± 0.93 under setting [1] and 3.06 ± 0.31 under setting [2].

Turning to QAWFGFAGTPGYLSPEVLRKDPYG [CAMK2D], the protein stability index amounted to 2.86 ± 0.79 under setting [1] and 2.94 ± 0.39 under setting [2].

For the sequence QCLEDLVNHYSEVADGLCCVLTTP [SLA], the protein stability index runs as follows: under setting [1], 2.11 ± 0.39; under setting [2], 2.27 ± 0.36.

With QDDISSSYTTTTTITAPPSRVLQN [SCD], the protein stability index was determined as 4.71 ± 0.3 under setting [1] and 4.89 ± 0.3 under setting [2].

QEANARERNRMHGLNDALDNLRKV [NEUROD6]: the protein stability index stood at 4.55 ± 0.14 under setting [1] and 4.56 ± 0.23 under setting [2].

For the sequence QECPPDGRSFREEQCVSFNSHVYN [ADAMTSL2], the protein stability index is, setting by setting: under setting [1], 4.08 ± 0.11; under setting [2], 3.91 ± 0.2.

Consider QEIIKTTEQLIEAVNNGDFEAYAK [CAMK2B], for which the protein stability index was determined as 4.27 ± 0.17 under setting [1] and 4.26 ± 0.15 under setting [2].

Turning to QENEEKEQVANKGEPLALPLDAGE [BEX1], the protein stability index worked out at 5.59 ± 0.27 under setting [1] and 5.48 ± 0.56 under setting [2].

In the case of QERPRPEPGRLGSSSPASVTTEQL [PXN], the protein stability index under setting [1] turned out to be 5.29 ± 0.3 and the protein stability index under setting [2] amounted to 5.12 ± 0.39.

On to QESDQTEEHESGIEQFSESHAIHV [IQUB], for which the protein stability index stood at 5.34 ± 0.18 under setting [1] and 5.45 ± 0.22 under setting [2].

QETRGELQCRSPPRLHGAKAILDA [TBC1D10A]: the protein stability index by setting is: under setting [1], 4.55 ± 0.27; under setting [2], 4.62 ± 0.12.

Sequence QETVLVEERRVVHASGDASYSAGD [EPB41L3] displayed a protein stability index under setting [1] of 5.28 ± 0.2 and a protein stability index under setting [2] of 5.38 ± 0.24.

Regarding QEYQLPYQRVLPLPIFTPAKMGAT [TCAP], the protein stability index is 3.01 ± 0.35 under setting [1] and 3.09 ± 0.18 under setting [2].

Regarding QFRVVRCWKMLSPGFDSSVYSDLC [ADAMTSL2], the protein stability index was found to be 2.5 ± 1 under setting [1] and 2.32 ± 0.45 under setting [2].

Take QGEYSRKLEERFMTLAANHELMLR [CCDC89]: the protein stability index runs as follows: under setting [1], 3.15 ± 0.18; under setting [2], 3.18 ± 0.25.

For QHRKINPKNREYDRFYVINYLVRL [ZNF277], the protein stability index stood at 3.16 ± 1.1 under setting [1] and 2.29 ± 0.64 under setting [2].

Regarding QKPRGLEGGVLRGSKLEKGHLRGP [ZSWIM9], the protein stability index is, setting by setting: under setting [1], 3.98 ± 0.63; under setting [2], 3.82 ± 0.54.

On to QLELVILQSEPHRAGVQWKFAGSF [KCNK9], for which the protein stability index by setting is: under setting [1], 2.7 ± 0.54; under setting [2], 2.59 ± 0.44.

For the sequence QLIDNILEESDIDRDGTINLSEFQ [CIB1], the protein stability index is, setting by setting: under setting [1], 3.69 ± 0.35; under setting [2], 3.89 ± 0.26.

As for QLKACTNFDDILNVCDDYDVTCNE [KCNG1], the protein stability index is, setting by setting: under setting [1], 4.42 ± 0.16; under setting [2], 4.63 ± 0.085.

On to QLYMEQFTKANFWYQPSFHGVDLS [CARM1], for which the protein stability index by setting is: under setting [1], 2.42 ± 0.71; under setting [2], 2.48 ± 0.31.

For QNDNAPEILYPALPTDGSTGVELA [PCDHGA10], the protein stability index by setting is: under setting [1], 4.84 ± 0.39; under setting [2], 5.2 ± 0.18.

In the case of QPASELLQDVRVNQSRCEMKTFVS [TRIM15], the protein stability index amounted to 2.98 ± 0.48 under setting [1] and 3.25 ± 0.41 under setting [2].

QQHSDKTSLQGLTGTPLVAGSPIR [ISL2]: the protein stability index by setting is: under setting [1], 4.2 ± 0.21; under setting [2], 4.39 ± 0.13.

Take QQRPHPRSHSREPRAERKCPRIAP [ELOA2]: the protein stability index runs as follows: under setting [1], 4.49 ± 0.46; under setting [2], 4.53 ± 0.071.

Consider QRQAIKGAFYRRAQRLRPQDEPRQ [KCNG1], for which the protein stability index reads like this: under setting [1], 3.87 ± 0.24; under setting [2], 4.16 ± 0.22.

As to QRVLFSGSSDHSVIMWDIGGRKGT [WDFY2], the protein stability index was 2.8 ± 0.43 under setting [1] and 2.94 ± 0.14 under setting [2].

Take QSEHTMVLRCQLSAEEVRFPVSVT [C2CD2L]: the protein stability index by setting is: under setting [1], 2.64 ± 0.33; under setting [2], 2.49 ± 0.42.

In the case of QSEPSEQDGVLDLSTKKSPCAGST [LCOR], the protein stability index runs as follows: under setting [1], 5.39 ± 0.22; under setting [2], 5.46 ± 0.29.

Turning to QSLNDRLASYLDRVRSLETENRRL [KRT18], the protein stability index by setting is: under setting [1], 3.65 ± 0.044; under setting [2], 3.67 ± 0.23.

Consider QSLVSILRTTVHHAFPVVTENRGN [CLCN6], for which the protein stability index was 2.69 ± 0.57 under setting [1] and 2.46 ± 0.059 under setting [2].

With QTVTVEEAAGGESALAPSVFKQAK [MAP2], the protein stability index runs as follows: under setting [1], 5.21 ± 0.32; under setting [2], 5.38 ± 0.45.

Turning to QVALLRLTWSELFVLNAAQCSMPL [NR2F2], the protein stability index by setting is: under setting [1], 2.97 ± 0.44; under setting [2], 3 ± 0.41.

Consider QVHAWQLYYSKKLLDSWFTSTQEK [JAGN1], for which the protein stability index reads like this: under setting [1], 2.23 ± 0.29; under setting [2], 2.29 ± 0.29.
